Results: patent publication US7041458B2, “Methods and reagents for determining protein S” (priority 1996, dated 2006)
Bridges are numbered along the chain shown (N, C = ends). Where no end group is shown, it is not given here.

How the values were obtained:
[1] = biological target: T1, protein S-C4BP interaction (Homo sapiens, UniProt P20851); test: Peptide inhibition of the protein S-C4BP interaction by surface plasmon resonance (BIAcore, immobilized C4BP); format: binding; conditions: for effect on binding of human protein S to C4BP (SPR response): 50 nM protein S, peptide up to 100 μM (2000-fold excess); for IC50: 50 nM human protein S, immobilized C4BP, read-out: half maximum inhibition, peptide concentration; for inhibition of the protein S-C4BP interaction (summary of the above tests): up to 2000-fold excess over protein S
T1 construct: C4BPβ was first isolated from human plasma in the form of the protein S-C4BP complex; from tissue; host or cells: human plasma
T1 sequence (P20851 18-252): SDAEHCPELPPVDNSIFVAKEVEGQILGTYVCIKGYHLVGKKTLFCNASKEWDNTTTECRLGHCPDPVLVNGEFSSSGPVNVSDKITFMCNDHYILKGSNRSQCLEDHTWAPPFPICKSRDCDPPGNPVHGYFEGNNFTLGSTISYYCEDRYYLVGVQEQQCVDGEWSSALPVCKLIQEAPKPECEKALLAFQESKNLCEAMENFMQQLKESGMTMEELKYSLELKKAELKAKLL
T1 sequence (P04003 49-597 partner): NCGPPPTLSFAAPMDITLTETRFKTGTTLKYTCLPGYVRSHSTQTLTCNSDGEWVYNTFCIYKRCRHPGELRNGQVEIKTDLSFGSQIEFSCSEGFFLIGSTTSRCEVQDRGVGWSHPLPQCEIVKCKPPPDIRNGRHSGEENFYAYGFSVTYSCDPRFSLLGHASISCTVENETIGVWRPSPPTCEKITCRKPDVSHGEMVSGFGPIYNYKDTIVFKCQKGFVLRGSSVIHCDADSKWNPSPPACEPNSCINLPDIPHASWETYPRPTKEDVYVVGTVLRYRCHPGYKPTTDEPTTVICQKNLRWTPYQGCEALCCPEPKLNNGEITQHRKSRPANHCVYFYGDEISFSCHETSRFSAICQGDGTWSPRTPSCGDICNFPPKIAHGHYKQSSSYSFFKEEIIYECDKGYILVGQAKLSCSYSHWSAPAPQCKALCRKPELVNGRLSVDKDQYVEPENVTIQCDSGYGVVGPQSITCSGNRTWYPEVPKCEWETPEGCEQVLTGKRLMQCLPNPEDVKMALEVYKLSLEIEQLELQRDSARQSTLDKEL
Description: E. Peptide Inhibition of the Protein S-C4BP Interaction According to Surface Plasmon Resonance Studies.
The surface plasmon resonance studies were performed using a BIAcore™ apparatus from Pharmacia Biosensor AB. Immobilization of C4BP to the dextran coated gold surface of a sensorchip was performed at a flow rate of 5 μl/min, using HC as flow buffer. Equal volumes of 0.1 M NHS and 0.1 M EDC were first mixed, whereafter 30 μl of the mixture was flown over the sensorchip surface to activate the carboxymethylated dextran. C4BP was then injected over the sensorchip (40 μl of a 60 μg/ml solution in 10 mM NaOAc at pH 4.75), whereafter unreacted NHS-ester groups were blocked by 15 μl 1M ethanolamine (pH 8.5). The system was regenerated by addition of 15 μl 0.1 M HCl, which removes all non-covalently bound molecules. The immobilized amount of C4BP was 8000 RU. Protein S association was monitored with 50 nM human protein S in HC buffer in a continuous flow of 1 μl per minute during 45 minutes. The ability of each peptide to inhibit the protein S binding was studied by following the association to C4BP for mixtures of protein S and peptide. In BIAcore™, the total amount of bound material is measured, and the peptides are 25-fold smaller than protein S, inhibition of protein S-binding by peptide binding will drastically lower the observed response during the association phase. The percent protein S bound, X, was calculated as X=(S−0.04Smax)/0.96Smax where S is the measured response and Smax is the response obtained in the absence of peptide.
As disclosed in Section E, the ability of the synthetic peptides to inhibit the binding of human protein S to C4BP was also studied using surface plasmon resonance on a BIA-core™ system.
(§1) In these figures, peptide inhibition of the protein S-C4BP interaction is shown as the amount of protein S bound (relative to the amount bound in the absence of peptide) versus concentration of the nine peptides listed in Table 1: (o) SL1, (♦) SL2, (□) SL3, (+) SL4, (⋄) SL5, (●) SL6, (▾) SL7, (Δ) BD4 & (∇) BD6. In FIG. 5A, the result from an equilibrium binding assay using immobilized C4BP in microtiter wells and radiolabelled human protein S is shown. […] In FIG. 5B, the result from surface plasmon resonance assay on a BIAcore™ sensorchip is shown. The amount of protein S bound, X, was calculated from the observed signal intensity, S, compared to the maximum signal intensity in the absence of peptide Smax, as […].

[2] = biological target: T1, protein S-C4BP interaction; test: Peptide inhibition of the protein S-C4BP interaction in microtiter plates (equilibrium binding assay, 125I-labelled protein S tracer, immobilized C4BP); conditions: displacement of 125I-labelled protein S from immobilized C4BP, EDTA buffer; read-out: half-maximum inhibition
Description: D. Peptide Inhibition of the Protein S-C4BP Interaction in Microtiter Plates.
Microtiter plates were coated with C4BP, 50 μl/well, 10 μg/ml in 0.075 M sodium carbonate buffer, pH 9.6. The plates were incubated over night at 4° C. and then washed with TBS, pH 7.5, containing 0.1% Tween 20. […] The wells were then washed and the amount of bound protein S detected using a γ-counter.
As disclosed in Section D, the synthetic peptides were tested for their ability to displace binding of a ^125I-labelled protein S tracer to immobilized C4BP (FIG. 5A).
as §1

C4BP = biological target: T2, C4BP (Homo sapiens, UniProt P20851); test: Fluorescence polarization titration of peptides with C4BP (results not shown); format: binding; conditions: read-out: dissociation constant KD of the peptide-C4BP complex
T2 sequence (P20851 18-252): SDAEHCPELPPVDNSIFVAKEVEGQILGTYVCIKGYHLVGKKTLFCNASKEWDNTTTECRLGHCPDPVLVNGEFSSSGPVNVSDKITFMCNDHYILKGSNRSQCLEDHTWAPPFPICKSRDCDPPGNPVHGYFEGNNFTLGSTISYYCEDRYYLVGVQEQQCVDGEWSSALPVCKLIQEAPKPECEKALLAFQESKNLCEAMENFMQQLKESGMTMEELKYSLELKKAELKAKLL
T2 sequence (P04003 49-597 partner): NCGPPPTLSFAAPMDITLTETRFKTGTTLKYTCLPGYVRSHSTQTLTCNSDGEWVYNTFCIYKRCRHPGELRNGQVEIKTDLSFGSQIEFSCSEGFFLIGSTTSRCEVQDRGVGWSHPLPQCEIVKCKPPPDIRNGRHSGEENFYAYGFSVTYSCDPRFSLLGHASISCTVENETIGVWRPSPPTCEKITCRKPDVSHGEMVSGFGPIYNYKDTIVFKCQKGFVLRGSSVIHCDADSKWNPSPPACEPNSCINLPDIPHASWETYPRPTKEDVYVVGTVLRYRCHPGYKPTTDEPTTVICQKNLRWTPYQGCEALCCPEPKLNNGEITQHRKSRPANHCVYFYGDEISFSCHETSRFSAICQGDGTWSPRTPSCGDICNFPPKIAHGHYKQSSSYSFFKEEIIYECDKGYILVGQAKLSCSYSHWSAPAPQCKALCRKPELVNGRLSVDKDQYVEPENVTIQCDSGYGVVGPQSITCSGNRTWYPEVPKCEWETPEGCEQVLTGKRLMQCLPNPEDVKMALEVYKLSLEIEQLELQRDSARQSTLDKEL
Excerpt: The difference in KD observed for the peptide and protein might in part be due to post translational modification of the protein.

DKAMKAKVATYLGGLPDVPFSAT [SL4]
effect on binding of human protein S to C4BP (SPR response) [1]: the same response was observed as with protein S alone

EKGSYYPGSGIAQFHIDYNNVS [SL2]
IC50 [1]: 30 to 120 µM | IC50 [2]: 100 to 200 µM | Kd (C4BP): ≤ 1 µM

KPENGLLETKVYFAGFPRK [SL1]
effect on binding of human protein S to C4BP (SPR response) [1]: the same response was observed as with protein S alone

LDGCIRSWNLMKQGASGIKEIIQEKQNKHCLVT (disulfide 4-30 (inferred)) [BD4, reference compound]
effect on binding of human protein S to C4BP (SPR response) [1]: the same response was observed as with protein S alone | inhibition of the protein S-C4BP interaction (summary of the above tests) [1]: gave no inhibitory effect | inhibition of the protein S-C4BP interaction (summary of the above tests) ([1]; listed as 405–437): did not show any inhibitory effect

LVTVEKGSYYPGSGIAQ [SL5]
effect on binding of human protein S to C4BP (SPR response) [1]: the same response was observed as with protein S alone

LVTVEKGSYYPGSGIAQFHIDYNNVSSAEGWHVN [SL7]
IC50 [1]: 30 to 120 µM | IC50 [2]: 100 to 200 µM | Kd (C4BP): ≤ 1 µM

SDQQSHLEFRVNNLEKSTPLK [SL3]
effect on binding of human protein S to C4BP (SPR response) [1]: the same response was observed as with protein S alone
